According to the nanobody polyreactivity screen of Harvey et al. (2022):

Assay: yeast display, Sf9 membrane polyspecificity reagent, FACS + sequencing; frameworks hold sequencing errors
How it was run: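 Sorting gates, low and high (top ~1%), were placed on anti-HA fluorescence to track expression and on streptavidin fluorescence to track reagent binding. A clone's polyreactivity label is taken from the gate it came out of. The reagent was 10% biotinylated, detergent-solubilized Sf9 membrane, applied for 1 hour at 4 °C to galactose-induced yeast display cells.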

Q: With “QVQLVESGGGLVQAGGSLRLSCAASGSILYNNAMGWYRQAPGKERELVAAIDLSTGSTYYADSVKGRFTISRDNAKNTVYLQMNSLKPEDSSVYYCAAGKPLGSSTKYRPYDYWGQGTQVTVSS” as the sequence, how does the “polyreactivity (PSR sort gate)” value read?
A: low polyreactivity

Q: For “QVQLVESGGGLVQAGGSLRLSCAASGSILYSYTMGWYRQAPGKERELVAAINRGGRTNYADSVKGRFTISRDNAKNTVYLQMNSLKPEDTAVYYCNTGIYAWSWRRAMDYWGQGTQVTVSS”, which “polyreactivity (PSR sort gate)” value is on record?
A: high polyreactivity

Q: For “QVQLVESGGGLVQAGGSLRLSCAASGSILYVNAMGWYTQEPGKERELVAAITVSGGSTYYADSVKGRFTISRDNAKNTVYLQMNSLKPEDTAVFYCAAPALGNYFYGYDYCGQGTQVTVSS”, which “polyreactivity (PSR sort gate)” value is on record?
A: low polyreactivity

Q: For “QVQLVESGGGLVQAGGSLRLSCAASGSILYVYAMGWYRQAPGKERELVATITGRVVSTNYADSVKGRFTISRDNAKNTVYLQMNSLKPEDTAVYYCAARTRRRRGEYDYWGQGTQVTVSS”, which “polyreactivity (PSR sort gate)” value is on record?
A: high polyreactivity

Q: Which “polyreactivity (PSR sort gate)” value does the source give for “QVQLVESGGGLVQAGGSLRLSCAASGSILYVYAMGWYRQAPGKERELVATITGRVVSTNYADSVKGRLTISRDNAKNTVYLQMNSLKPEDTAVYYCAARTRRRRGEYDYWGQGTQVTVSS” here?
A: high polyreactivity

Q: With “QVQLVESGGGLVQAGGSLRLSCAASGSINNRNAMGWYIQAPGKERELVAAITRRGGSTYYADSVKGRFTISRDNAKNTVYLQMNSLKPEETAVYYFNAVKGLSSWSYEYWGQGSQVTVSS” as the sequence, how does the “polyreactivity (PSR sort gate)” value read?
A: high polyreactivity

Q: With “QVQLVESGGGLVQAGGSLRLSCAASGSIQARYAMGWYRQAPGKERELVASITTSGDSTYYADSVKGRFTISRDNAKNTVYLQMNSLKPEDTAVSYCARRRWGWGYQHFPYYYWGQGTQVTVSS” as the sequence, how does the “polyreactivity (PSR sort gate)” value read?
A: high polyreactivity

Q: For “QVQLVESGGGLVQAGGSLRLSCAASGSIQTRNAMGWYRQAPGKERELVAAITGSGGRTYYADSVKGRFTISRDNAKNTVYLQMNSLKPEDTAVYYCATRYGREDYWGQVTQVTVSS”, which “polyreactivity (PSR sort gate)” value is on record?
A: high polyreactivity

Q: Which “polyreactivity (PSR sort gate)” value does the source give for “QVQLVESGGGLVQAGGSLRLSCAASGSIQYYAMGWYRQEPGKERELVAAIRFSGGRTYYADSVKGRFTISRDNAKNTVYLQMNSLKPEETAVYYCAAYRSPRRSGAPSQGKFDYWGQVTQVTVSS” here?
A: high polyreactivity

Q: Which “polyreactivity (PSR sort gate)” value does the source give for “QVQLVESGGGLVQAGGSLRLSCAASGSIRSYAMGWYRQSPGKERELVAAITRSGGSTYYADSVKGRFTISRDNAKNSVYLQMNSLKPEDTAVYYCAAEVRGKSRSTRVSYRYDYWGQGTQVTVSS” here?
A: high polyreactivity

Q: Which “polyreactivity (PSR sort gate)” value does the source give for “QVQLVESGGGLVQAGGSLRLSCAASGSIRYYVKGWYRQAPGKERELVAGINWSGGSTYYADSVKGRFTISRDNAKNTVYLQMNSLKPEDTAVYYCAARFVGVRDGYYYWGQGTQVTLSS” here?
A: high polyreactivity

Q: With “QVQLVESGGGLVQAGGSLRLSCAASGSISAPNAMGWYRQAPGKERALVATINSGGRTNYADSVKGRFTISRDNAKNTVYFQMNSLKPEDTAVYYCNTVVRGAYTYGDVSKYDYWGHGTQVTVSS” as the sequence, how does the “polyreactivity (PSR sort gate)” value read?
A: low polyreactivity

Q: With “QVQLVESGGGLVQAGGSLRLSCAASGSISDSYAMGWYRPAPGKERELVAAITSGDSTYYADSVKGRFTISRDNAKNTVYLQMNSLKPEDTAVYYCAKRVSRVLGYGFTDWSEYDYWGQGTQVTVSS” as the sequence, how does the “polyreactivity (PSR sort gate)” value read?
A: low polyreactivity

Q: With “QVQLVESGGGLVQAGGSLRLSCAASGSISDSYAMGWYRQAPGKERELVAAITSGDSTYYADSVKGRFTISRDNAKNTVYLQMNSLKPEDTAFYYCAKRVSRVRGYGFTDWSEYDYWGQGTQVTVSS” as the sequence, how does the “polyreactivity (PSR sort gate)” value read?
A: low polyreactivity

Q: Which “polyreactivity (PSR sort gate)” value does the source give for “QVQLVESGGGLVQAGGSLRLSCAASGSISFYYGIGWYRHAPGKERELVAALNNTGSTNYADSVKGRFTISRDNAKNTVYLQMNSLKPEDTAVYYCNAEQWQSSEYGEWSKRDYWGHGTQVTVSS” here?
A: low polyreactivity

Q: Which “polyreactivity (PSR sort gate)” value does the source give for “QVQLVESGGGLVQAGGSLRLSCAASGSISGWYAMGWYRHAPGKERELVADISSIDGSTYYADSVKGRFTISRDNEKNTVYLQMNSLKPEDTSVYYCSADRGFYYEYDYWGQGTQVTVSS” here?
A: low polyreactivity

Q: For “QVQLVESGGGLVQAGGSLRLSCAASGSISGYNAMGWYRQAPGKERELVAVITTDGSTNYADSVKGRFTISRDNAKNTVYLQMNSLKPEDTAVYYCNTDDGWRLLWEYDYWGQGTQVTVSS”, which “polyreactivity (PSR sort gate)” value is on record?
A: low polyreactivity

Q: For “QVQLVESGGGLVQAGGSLRLSCAASGSISGYYAMGWNRQAPGKERELVASIRYTGARTYYADSVKGRFTISRDNAKNTVYLQMNSLKPEDTAVYYCAADVKRDRVWGGDYWGQGTQVTVSS”, which “polyreactivity (PSR sort gate)” value is on record?
A: low polyreactivity

Q: Which “polyreactivity (PSR sort gate)” value does the source give for “QVQLVESGGGLVQAGGSLRLSCAASGSISGYYAMGWSRQAPGKERELVASIRYTGARTYYADSVKGRFTISRDNAKNTVYLQMNSLKPEDTAVYYCNAYTRYPFYFVTSKYDYWGQGTQVTVSS” here?
A: low polyreactivity

Q: With “QVQLVESGGGLVQAGGSLRLSCAASGSISGYYAMGWYRQAPGKERELVASIRYTGARTYYADSVMGRFTISRDTAKNNVYLQMNSLKPEDTAVYYCAADVKRDRVWGGDYWGQGTQVTVSS” as the sequence, how does the “polyreactivity (PSR sort gate)” value read?
A: low polyreactivity

Q: For “QVQLVESGGGLVQAGGSLRLSCAASGSISIRNAMGWYRQAPGKERELVAAISRGGSTYYADSVKGRFTISRDNAKNTVYLQMNSLKPEDTAVYYCATDGGRYYRGREYAFKYYYWGQGTQVTVSS”, which “polyreactivity (PSR sort gate)” value is on record?
A: high polyreactivity

Q: Which “polyreactivity (PSR sort gate)” value does the source give for “QVQLVESGGGLVQAGGSLRLSCAASGSISKINAMGWYRHAPGKERELVAAINTGDSTYYADSVKGRFTISRDNAKNTVYLQMNSLKPEDTAVYYCAAEGAPTGYDYWGQGTQVTVSS” here?
A: low polyreactivity

Q: Which “polyreactivity (PSR sort gate)” value does the source give for “QVQLVESGGGLVQAGGSLRLSCAASGSISKINAMGWYRQAPGKERELVAAINTGDSTYYADSVKGRFTISRDNAKNTVYLQMNSLKPEDTAVYYCAAEGSPNGYDYWGQGTQVTVSS” here?
A: low polyreactivity

Q: Which “polyreactivity (PSR sort gate)” value does the source give for “QVQLVESGGGLVQAGGSLRLSCAASGSISLYAMGWYRQAPGKERELVAAITKSGGSTYYADSVKGRFTISRDNAKNTVYLQMNSLKPEDTAVYYCNRGGGERKYNYWGQGTQVTGSS” here?
A: high polyreactivity

Q: Which “polyreactivity (PSR sort gate)” value does the source give for “QVQLVESGGGLVQAGGSLRLSCAASGSISNYYGMGWYRQAPGKERELVAAITWGGGRTNYADSVKGRFTISRDNAKNTVYLQMNSLKPEDTAVYYCAKVSVTHRYGAGGDYWGQGTQVTVSS” here?
A: low polyreactivity

Q: Which “polyreactivity (PSR sort gate)” value does the source give for “QVQLVESGGGLVQAGGSLRLSCAASGSISQGNAMGWYRQAPGKERELVAAIRWTSGRTYYADSVKGRFTISRDNAKNTVSLEINSLKPEDPAVYYCAAYYVYYTPTLFDRDYWGQGTQVTVSS” here?
A: low polyreactivity

Q: With “QVQLVESGGGLVQAGGSLRLSCAASGSISRYYAMGWYRQAPRKERELVAAISSNGGSTYYADSVKGRFTISRDNAKNSVYLQMYSLKPEDTAVYYCNAFYVGYIRYWTNKLVDYWGQGTQVTVSS” as the sequence, how does the “polyreactivity (PSR sort gate)” value read?
A: high polyreactivity

Q: For “QVQLVESGGGLVQAGGSLRLSCAASGSISSFYAMGWYRQAPGKERELVAGITSGGSTNYADSVKGRFTISRDNAKNTVYLQMNSLKPEDTAVDYCAAVYKGAGTHFDVFVKEFDYWGQGTQVTVSS”, which “polyreactivity (PSR sort gate)” value is on record?
A: low polyreactivity

Q: Which “polyreactivity (PSR sort gate)” value does the source give for “QVQLVESGGGLVQAGGSLRLSCAASGSISSKNAMGWYRQAPGKEREFVAVISGTGGSTYYADSVKGRFTISRDNAKNTVYLQMNSLKPEDTAFYYCAAAASSIVSYGYTWTYGYWGQGTQVTVSS” here?
A: low polyreactivity

Q: With “QVQLVESGGGLVQAGGSLRLSCAASGSISSSYAMGWYRQAPGKERELVAAIDGSDGTTYYADSVKGRYTISRDNAKNTVYLQMNSLKPEDTAFYYCAAEPLGYHAGATRYDYWGQGTQVTVSS” as the sequence, how does the “polyreactivity (PSR sort gate)” value read?
A: high polyreactivity

Q: For “QVQLVESGGGLVQAGGSLRLSCAASGSISSVNAMGWYREAPGKERELVATISSGGSTYADSVKGRFTISRDNAKNTVYLQMNSLKPEDTAVYYCATYFVAYTFYYRWYRSYASFYYWGQGTQVTVSS”, which “polyreactivity (PSR sort gate)” value is on record?
A: low polyreactivity

Q: Which “polyreactivity (PSR sort gate)” value does the source give for “QVQLVESGGGLVQAGGSLRLSCAASGSISSYYAMGWYRQATGKERELVAAISKSGGSTYYADSVKGRFTISRDNAKNTVYLQMNSLKPEDSAVYYCAARDYGWRYYRKYDYWGQGTQVTVSS” here?
A: high polyreactivity

Q: For “QVQLVESGGGLVQAGGSLRLSCAASGSISTWYAMGWYRQATGKERELVAAINSGDSTYYADSVKGRFTISRDNAKNTVYLQMNSLKPEDTAVYYCAASSYSSKPFDYWGQGTQVTVSS”, which “polyreactivity (PSR sort gate)” value is on record?
A: high polyreactivity

Q: Which “polyreactivity (PSR sort gate)” value does the source give for “QVQLVESGGGLVQAGGSLRLSCAASGSISTYYAMGWYRQAPGKERELVAAISKSGGSTYYADSVKGRFTISRDNAKYTVYLQMNSLKPEDTEVYYCAARYKGRAFWMDYWGQGTQVTVSS” here?
A: high polyreactivity

Q: Which “polyreactivity (PSR sort gate)” value does the source give for “QVQLVESGGGLVQAGGSLRLSCAASGSISVWYVMGWYRQAPGKERELVAAITRSGGSTFYADSVKGRFTISRDNAKNTVYLQMNSLKPEDTAVYYCAADGGVAWGYGYWGQGTQVTVSS” here?
A: low polyreactivity

Q: For “QVQLVESGGGLVQAGGSLRLSCAASGSISVYNAMGWYRQAPGTERELVAAISWSGGRTSYADSVKGRFTISRDNAKNTVYLQMNSLKPEDTAVYYCAADELTVLWDEDYWGQGTQVTVSS”, which “polyreactivity (PSR sort gate)” value is on record?
A: low polyreactivity

Q: With “QVQLVESGGGLVQAGGSLRLSCAASGSISWLYAMGWYRQAPGKEREFVAAISESGDTYYADSVKGRFTISRDNAKNTVYLQMNSLKPEDTAVYYCAATRPDGVTYDYWGQGTQVTVSS” as the sequence, how does the “polyreactivity (PSR sort gate)” value read?
A: low polyreactivity

Q: With “QVQLVESGGGLVQAGGSLRLSCAASGSISWVYAMGWYRQAPGKERELVADITDSGDSTYYADSVKGRFTISRDNAKNTVYLQMNSLKPEDTAVYYCAADGWRHYYIYWPYNYWGQGTQVTVSS” as the sequence, how does the “polyreactivity (PSR sort gate)” value read?
A: low polyreactivity

Q: Which “polyreactivity (PSR sort gate)” value does the source give for “QVQLVESGGGLVQAGGSLRLSCAASGSISYPKAMGWYRQAPGKERELVAAINSGDRTNYADSVKGRFTISRDNAKNTVYLQMNSLKPEDTAVYYCARRRYFLWGGYGYWGQGTQVTVSS” here?
A: low polyreactivity

Q: Which “polyreactivity (PSR sort gate)” value does the source give for “QVQLVESGGGLVQAGGSLRLSCAASGSIVAWYGMGWYRQAPGKERELVAAISTAGSTNYADSVKGRFTISRDNAKNTVYLQMYSLKPEDTAVHYCAKKSSWYYPERFDYWGQGTQVTVSS” here?
A: low polyreactivity

Q: With “QVQLVESGGGLVQAGGSLRLSCAASGSIVDYNAMGWYRQPPGKERELVAAISSGGSTYYADSVKGRFTISRDNAKNTVYLQMNSLKPEDTAVYYCAVKFWLVIQFDYWGQGTQVTVSS” as the sequence, how does the “polyreactivity (PSR sort gate)” value read?
A: low polyreactivity

Q: For “QVQLVESGGGLVQAGGSLRLSCAASGSIVENMGWYRQAPGKERELVAAISSSGDSTYYADSVKGRFTISRDNAKNTVYLQMNSLKPEDTAVYYCAADFYYYKKQYDYWGQGTQVTVSS”, which “polyreactivity (PSR sort gate)” value is on record?
A: low polyreactivity

Q: For “QVQLVESGGGLVQAGGSLRLSCAASGSIVGYYAMGWYRQAPGKEREFVARISSSTDSTYYADSVKGRFTISRDNAKKTVYLQMNSLKPEDTAVYYCNADDTWYYGYWGQGTQVTVSS”, which “polyreactivity (PSR sort gate)” value is on record?
A: low polyreactivity
